# Reference: article PMC4622073 (mAbs, 2014)
# T1: mST2-Fc fusion protein (unlabelled) (mouse, UniProt P14719 27-332)
# T1 sequence: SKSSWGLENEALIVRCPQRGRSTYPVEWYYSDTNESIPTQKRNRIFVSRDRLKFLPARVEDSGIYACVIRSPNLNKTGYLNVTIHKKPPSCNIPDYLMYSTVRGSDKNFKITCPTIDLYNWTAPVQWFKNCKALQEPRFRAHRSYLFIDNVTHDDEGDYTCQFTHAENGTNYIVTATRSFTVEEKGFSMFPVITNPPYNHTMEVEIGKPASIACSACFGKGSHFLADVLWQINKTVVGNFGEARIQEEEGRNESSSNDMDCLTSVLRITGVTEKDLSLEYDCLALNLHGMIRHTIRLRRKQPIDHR
# T2: biotinylated mST2-Fc fusion protein (mouse, UniProt P14719 27-332, biotin (site not stated))
# T2 sequence: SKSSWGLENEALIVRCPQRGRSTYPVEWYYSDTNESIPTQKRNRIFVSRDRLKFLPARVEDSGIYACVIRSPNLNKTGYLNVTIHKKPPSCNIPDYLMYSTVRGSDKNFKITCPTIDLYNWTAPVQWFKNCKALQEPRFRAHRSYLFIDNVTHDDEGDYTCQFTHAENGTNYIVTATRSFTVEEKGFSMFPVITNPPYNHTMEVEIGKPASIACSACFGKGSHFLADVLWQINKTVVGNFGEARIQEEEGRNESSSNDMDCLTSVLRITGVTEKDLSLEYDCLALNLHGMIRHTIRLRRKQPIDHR
# B1: mouse interleukin-33 (mIL-33), amino acids 97-266, FLAG 10His tagged (ligand)
# chain: SIQAFAASVDTLSIQGTSLLTQSPASLSTYNDQSVSFVLENGCYVINVDDSGKDQEQDQVLLRYYESPCPASQSGDGVDGKKLMVNMSPIKDTDIWLHANDKDYSVELQRGDVSPPEQAFFVLHKKSSDFVSFECKNLPGTYIGVKDNQLALVEEKDESCNNIMFKLSKI
# Experiments:
# [1] = biological target: T1, mST2-Fc fusion protein (unlabelled); assay: AlphaScreen or HTRF
# [2] = biological target: T2, biotinylated mST2-Fc fusion protein; assay: AlphaScreen or HTRF
binder,measurement,setting,value
B1,binding result,[1],binds
same,binding result,[2],binds
